Numbered stars: 1 amine (or outer) side, 2 acyl side, 3 side chain; on linkers, the order of the positions; unused ones are H or OH. * marks the point of attachment. C20 diacid = O=C(O)CCCCCCCCCCCCCCCCCCC(=O)*; C18 diacid = O=C(O)CCCCCCCCCCCCCCCCC(=O)*; γGlu = O=C(O)[C@H](CCC(=O)[*:2])N[*:1]
T1: human amylin 3(a) receptor (human calcitonin receptor co-expressed with RAMP-3) (human, UniProt P30988 25-474; O60896 24-148, limits assumed)
T1 sequence (looked up) 1: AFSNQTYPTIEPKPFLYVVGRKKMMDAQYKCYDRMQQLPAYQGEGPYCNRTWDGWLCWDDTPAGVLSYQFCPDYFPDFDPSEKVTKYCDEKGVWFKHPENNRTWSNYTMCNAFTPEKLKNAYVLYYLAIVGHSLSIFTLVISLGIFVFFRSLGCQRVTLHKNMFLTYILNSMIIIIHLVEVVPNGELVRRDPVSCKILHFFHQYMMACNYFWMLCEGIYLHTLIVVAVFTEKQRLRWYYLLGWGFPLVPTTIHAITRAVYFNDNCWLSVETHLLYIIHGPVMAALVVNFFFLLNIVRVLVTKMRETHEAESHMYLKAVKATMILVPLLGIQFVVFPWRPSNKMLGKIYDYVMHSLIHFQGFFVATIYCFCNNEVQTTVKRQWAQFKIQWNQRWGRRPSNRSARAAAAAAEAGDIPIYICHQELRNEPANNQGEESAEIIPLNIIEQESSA
T1 sequence (looked up) 2: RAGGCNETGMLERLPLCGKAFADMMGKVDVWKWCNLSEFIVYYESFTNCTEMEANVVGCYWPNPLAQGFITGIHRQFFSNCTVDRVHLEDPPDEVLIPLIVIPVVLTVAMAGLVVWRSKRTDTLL

T2: human calcitonin receptor (human, UniProt P30988 25-474)
T2 sequence (looked up): T1 sequence (looked up) 1

B1: [N-terminal(C20 diacid-gGlu), des1, 9T, 21S, 23Y, 30S, 31G]mimylin (peptide)
peptide: {C20 diacid-γGlu}-ASELSTATLGRLSAELHELSTYPRTETGSGSP-NH2
SMILES: CC(C)C[C@H](NC(=O)[C@H](CCCNC(=N)N)NC(=O)CNC(=O)[C@H](CC(C)C)NC(=O)[C@@H](NC(=O)[C@H](C)NC(=O)[C@@H](NC(=O)[C@H](CO)NC(=O)[C@H](CC(C)C)NC(=O)[C@H](CCC(=O)O)NC(=O)[C@H](CO)NC(=O)[C@H](C)NC(=O)CC[C@H](NC(=O)CCCCCCCCCCCCCCCCCCC(=O)O)C(=O)O)[C@@H](C)O)[C@@H](C)O)C(=O)N[C@@H](CO)C(=O)N[C@@H](C)C(=O)N[C@@H](CCC(=O)O)C(=O)N[C@@H](CC(C)C)C(=O)N[C@@H](Cc1c[nH]cn1)C(=O)N[C@@H](CCC(=O)O)C(=O)N[C@@H](CC(C)C)C(=O)N[C@@H](CO)C(=O)N[C@H](C(=O)N[C@@H](Cc1ccc(O)cc1)C(=O)N1CCC[C@H]1C(=O)N[C@@H](CCCNC(=N)N)C(=O)N[C@H](C(=O)N[C@@H](CCC(=O)O)C(=O)N[C@H](C(=O)NCC(=O)N[C@@H](CO)C(=O)NCC(=O)N[C@@H](CO)C(=O)N1CCC[C@H]1C(N)=O)[C@@H](C)O)[C@@H](C)O)[C@@H](C)O
B2: [N-terminal(C20 diacid-gGlu), des1, 12H, 25H, 30T, 31G, 32T]mimylin (peptide)
peptide: {C20 diacid-γGlu}-ASELSTAALGHLSAELHELATLPHTETGTGTP-NH2
SMILES: CC(C)C[C@H](NC(=O)[C@H](C)NC(=O)[C@H](C)NC(=O)[C@@H](NC(=O)[C@H](CO)NC(=O)[C@H](CC(C)C)NC(=O)[C@H](CCC(=O)O)NC(=O)[C@H](CO)NC(=O)[C@H](C)NC(=O)CC[C@H](NC(=O)CCCCCCCCCCCCCCCCCCC(=O)O)C(=O)O)[C@@H](C)O)C(=O)NCC(=O)N[C@@H](Cc1c[nH]cn1)C(=O)N[C@@H](CC(C)C)C(=O)N[C@@H](CO)C(=O)N[C@@H](C)C(=O)N[C@@H](CCC(=O)O)C(=O)N[C@@H](CC(C)C)C(=O)N[C@@H](Cc1c[nH]cn1)C(=O)N[C@@H](CCC(=O)O)C(=O)N[C@@H](CC(C)C)C(=O)N[C@@H](C)C(=O)N[C@H](C(=O)N[C@@H](CC(C)C)C(=O)N1CCC[C@H]1C(=O)N[C@@H](Cc1c[nH]cn1)C(=O)N[C@H](C(=O)N[C@@H](CCC(=O)O)C(=O)N[C@H](C(=O)NCC(=O)N[C@H](C(=O)NCC(=O)N[C@H](C(=O)N1CCC[C@H]1C(N)=O)[C@@H](C)O)[C@@H](C)O)[C@@H](C)O)[C@@H](C)O)[C@@H](C)O
B3: [N-terminal(C18 diacid), 9V]mimylin (peptide)
peptide: {C18 diacid}-EASELSTAVLGRLSAELHELATLPRTETGPESP-NH2
SMILES: CC(C)C[C@H](NC(=O)[C@H](CCC(=O)O)NC(=O)[C@H](Cc1c[nH]cn1)NC(=O)[C@H](CC(C)C)NC(=O)[C@H](CCC(=O)O)NC(=O)[C@H](C)NC(=O)[C@H](CO)NC(=O)[C@H](CC(C)C)NC(=O)[C@H](CCCNC(=N)N)NC(=O)CNC(=O)[C@H](CC(C)C)NC(=O)[C@@H](NC(=O)[C@H](C)NC(=O)[C@@H](NC(=O)[C@H](CO)NC(=O)[C@H](CC(C)C)NC(=O)[C@H](CCC(=O)O)NC(=O)[C@H](CO)NC(=O)[C@H](C)NC(=O)[C@H](CCC(=O)O)NC(=O)CCCCCCCCCCCCCCCCC(=O)O)[C@@H](C)O)C(C)C)C(=O)N[C@@H](C)C(=O)N[C@H](C(=O)N[C@@H](CC(C)C)C(=O)N1CCC[C@H]1C(=O)N[C@@H](CCCNC(=N)N)C(=O)N[C@H](C(=O)N[C@@H](CCC(=O)O)C(=O)N[C@H](C(=O)NCC(=O)N1CCC[C@H]1C(=O)N[C@@H](CCC(=O)O)C(=O)N[C@@H](CO)C(=O)N1CCC[C@H]1C(N)=O)[C@@H](C)O)[C@@H](C)O)[C@@H](C)O
B4: [N-terminal(C18 diacid-gGlu), des1, 5V, 9V, 10V, 30S, 31G]mimylin (peptide)
peptide: {C18 diacid-γGlu}-ASEVSTAVVGRLSAELHELATLPRTETGSGSP-NH2
SMILES: CC(C)C[C@H](NC(=O)[C@H](CCC(=O)O)NC(=O)[C@H](Cc1c[nH]cn1)NC(=O)[C@H](CC(C)C)NC(=O)[C@H](CCC(=O)O)NC(=O)[C@H](C)NC(=O)[C@H](CO)NC(=O)[C@H](CC(C)C)NC(=O)[C@H](CCCNC(=N)N)NC(=O)CNC(=O)[C@@H](NC(=O)[C@@H](NC(=O)[C@H](C)NC(=O)[C@@H](NC(=O)[C@H](CO)NC(=O)[C@@H](NC(=O)[C@H](CCC(=O)O)NC(=O)[C@H](CO)NC(=O)[C@H](C)NC(=O)CC[C@H](NC(=O)CCCCCCCCCCCCCCCCC(=O)O)C(=O)O)C(C)C)[C@@H](C)O)C(C)C)C(C)C)C(=O)N[C@@H](C)C(=O)N[C@H](C(=O)N[C@@H](CC(C)C)C(=O)N1CCC[C@H]1C(=O)N[C@@H](CCCNC(=N)N)C(=O)N[C@H](C(=O)N[C@@H](CCC(=O)O)C(=O)N[C@H](C(=O)NCC(=O)N[C@@H](CO)C(=O)NCC(=O)N[C@@H](CO)C(=O)N1CCC[C@H]1C(N)=O)[C@@H](C)O)[C@@H](C)O)[C@@H](C)O
B5: [N-terminal(C20 diacid-gGlu), des1, 21S, 23Y, 30S, 31G, 33Y]mimylin (peptide)
peptide: {C20 diacid-γGlu}-ASELSTAALGRLSAELHELSTYPRTETGSGSY-NH2
SMILES: CC(C)C[C@H](NC(=O)[C@H](C)NC(=O)[C@H](C)NC(=O)[C@@H](NC(=O)[C@H](CO)NC(=O)[C@H](CC(C)C)NC(=O)[C@H](CCC(=O)O)NC(=O)[C@H](CO)NC(=O)[C@H](C)NC(=O)CC[C@H](NC(=O)CCCCCCCCCCCCCCCCCCC(=O)O)C(=O)O)[C@@H](C)O)C(=O)NCC(=O)N[C@@H](CCCNC(=N)N)C(=O)N[C@@H](CC(C)C)C(=O)N[C@@H](CO)C(=O)N[C@@H](C)C(=O)N[C@@H](CCC(=O)O)C(=O)N[C@@H](CC(C)C)C(=O)N[C@@H](Cc1c[nH]cn1)C(=O)N[C@@H](CCC(=O)O)C(=O)N[C@@H](CC(C)C)C(=O)N[C@@H](CO)C(=O)N[C@H](C(=O)N[C@@H](Cc1ccc(O)cc1)C(=O)N1CCC[C@H]1C(=O)N[C@@H](CCCNC(=N)N)C(=O)N[C@H](C(=O)N[C@@H](CCC(=O)O)C(=O)N[C@H](C(=O)NCC(=O)N[C@@H](CO)C(=O)NCC(=O)N[C@@H](CO)C(=O)N[C@@H](Cc1ccc(O)cc1)C(N)=O)[C@@H](C)O)[C@@H](C)O)[C@@H](C)O
B6: [N-terminal(C20 diacid-gGlu), des1, 4G, 9V, 23Y, 30S, 31G, 32T]mimylin (peptide)
peptide: {C20 diacid-γGlu}-ASGLSTAVLGRLSAELHELATYPRTETGSGTP-NH2
SMILES: CC(C)C[C@H](NC(=O)CNC(=O)[C@H](CO)NC(=O)[C@H](C)NC(=O)CC[C@H](NC(=O)CCCCCCCCCCCCCCCCCCC(=O)O)C(=O)O)C(=O)N[C@@H](CO)C(=O)N[C@H](C(=O)N[C@@H](C)C(=O)N[C@H](C(=O)N[C@@H](CC(C)C)C(=O)NCC(=O)N[C@@H](CCCNC(=N)N)C(=O)N[C@@H](CC(C)C)C(=O)N[C@@H](CO)C(=O)N[C@@H](C)C(=O)N[C@@H](CCC(=O)O)C(=O)N[C@@H](CC(C)C)C(=O)N[C@@H](Cc1c[nH]cn1)C(=O)N[C@@H](CCC(=O)O)C(=O)N[C@@H](CC(C)C)C(=O)N[C@@H](C)C(=O)N[C@H](C(=O)N[C@@H](Cc1ccc(O)cc1)C(=O)N1CCC[C@H]1C(=O)N[C@@H](CCCNC(=N)N)C(=O)N[C@H](C(=O)N[C@@H](CCC(=O)O)C(=O)N[C@H](C(=O)NCC(=O)N[C@@H](CO)C(=O)NCC(=O)N[C@H](C(=O)N1CCC[C@H]1C(N)=O)[C@@H](C)O)[C@@H](C)O)[C@@H](C)O)[C@@H](C)O)C(C)C)[C@@H](C)O
B7: [N-terminal(C20 diacid-gGlu), des1, 9T, 21S, 23Y, 30S, 31G, 33Y]mimylin (peptide)
peptide: {C20 diacid-γGlu}-ASELSTATLGRLSAELHELSTYPRTETGSGSY-NH2
SMILES: CC(C)C[C@H](NC(=O)[C@H](CCCNC(=N)N)NC(=O)CNC(=O)[C@H](CC(C)C)NC(=O)[C@@H](NC(=O)[C@H](C)NC(=O)[C@@H](NC(=O)[C@H](CO)NC(=O)[C@H](CC(C)C)NC(=O)[C@H](CCC(=O)O)NC(=O)[C@H](CO)NC(=O)[C@H](C)NC(=O)CC[C@H](NC(=O)CCCCCCCCCCCCCCCCCCC(=O)O)C(=O)O)[C@@H](C)O)[C@@H](C)O)C(=O)N[C@@H](CO)C(=O)N[C@@H](C)C(=O)N[C@@H](CCC(=O)O)C(=O)N[C@@H](CC(C)C)C(=O)N[C@@H](Cc1c[nH]cn1)C(=O)N[C@@H](CCC(=O)O)C(=O)N[C@@H](CC(C)C)C(=O)N[C@@H](CO)C(=O)N[C@H](C(=O)N[C@@H](Cc1ccc(O)cc1)C(=O)N1CCC[C@H]1C(=O)N[C@@H](CCCNC(=N)N)C(=O)N[C@H](C(=O)N[C@@H](CCC(=O)O)C(=O)N[C@H](C(=O)NCC(=O)N[C@@H](CO)C(=O)NCC(=O)N[C@@H](CO)C(=O)N[C@@H](Cc1ccc(O)cc1)C(N)=O)[C@@H](C)O)[C@@H](C)O)[C@@H](C)O

Target: T1, human amylin 3(a) receptor (human …)
Experiment: cell-based or functional assay

Binder	hAmylin-R funct. EC50 (pM)
B1	22 pM
B2	64 pM
{C18 diacid-γGlu}-ASELTTAVLGRLSAELHELATLPRTETGSGTP-NH2 [[N-terminal(C18 diacid-gGlu), des1, 6T, 9V, 30S, 31G, 32T]mimylin]	42 pM
B3	12 pM
{C18 diacid-γGlu}-ASELTTAVLGRLSAELHELATLPRTETGTGTP-NH2 [[N-terminal(C18 diacid-gGlu), des1, 6T, 9V, 30T, 31G, 32T]mimylin]	65 pM
B4	11 pM
B5	50 pM
B6	47 pM
B7	20 pM

Target: T2, human calcitonin receptor
Experiment: cell-based or functional assay

Binder	hCTR funct. EC50 (pM)
B1	23 pM
B2	24 pM
{C18 diacid-γGlu}-ASELTTAVLGRLSAELHELATLPRTETGSGTP-NH2 [[N-terminal(C18 diacid-gGlu), des1, 6T, 9V, 30S, 31G, 32T]mimylin]	30 pM
B3	9 pM
{C18 diacid-γGlu}-ASELTTAVLGRLSAELHELATLPRTETGTGTP-NH2 [[N-terminal(C18 diacid-gGlu), des1, 6T, 9V, 30T, 31G, 32T]mimylin]	32 pM
B4	8 pM
B5	34 pM
B6	28 pM
B7	23 pM
